Target: T1, COP1-His recombinant protein (Arabidopsis thaliana, UniProt P43254 1-675)
T1 sequence (looked up): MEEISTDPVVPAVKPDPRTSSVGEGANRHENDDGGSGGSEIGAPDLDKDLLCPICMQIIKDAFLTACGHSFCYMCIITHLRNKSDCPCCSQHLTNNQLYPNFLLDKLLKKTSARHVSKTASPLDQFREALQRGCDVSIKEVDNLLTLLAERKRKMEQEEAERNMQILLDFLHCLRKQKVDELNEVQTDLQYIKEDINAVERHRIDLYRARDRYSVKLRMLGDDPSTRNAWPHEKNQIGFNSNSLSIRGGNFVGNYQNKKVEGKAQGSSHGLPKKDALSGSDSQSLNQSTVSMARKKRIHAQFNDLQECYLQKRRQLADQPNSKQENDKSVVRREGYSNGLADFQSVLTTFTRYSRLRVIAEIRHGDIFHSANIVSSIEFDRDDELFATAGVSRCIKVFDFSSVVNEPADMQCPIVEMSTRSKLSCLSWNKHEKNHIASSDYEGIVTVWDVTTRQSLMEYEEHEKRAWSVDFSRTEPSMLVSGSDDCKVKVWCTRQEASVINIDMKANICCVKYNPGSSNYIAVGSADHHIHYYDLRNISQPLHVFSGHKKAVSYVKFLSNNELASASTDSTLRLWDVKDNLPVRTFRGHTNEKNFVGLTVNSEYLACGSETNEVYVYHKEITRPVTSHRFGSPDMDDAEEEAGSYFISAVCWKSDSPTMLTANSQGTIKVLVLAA
Assay: pull-down

binding result: binds
B1: GST-HDA15 recombinant protein (enzyme, Arabidopsis thaliana, UniProt Q8GXJ1 1-552, looked up)
chain: MVVETIERSCEGSKRRHVNGGDIAVPCSGEECSNGDINVAPGVSAKRARVSREMTFEDIYGADALLNDDDDEDDDCDWEPVQAPMEFVKWCCVNCTMSNPGDMVHCCICGEHKESGILRHGYLASPFFKDTGLIEVEEKYGGSSSATSSTAVGFDERMLLHSEFEVKAQPHPERPDRLRAIAASLATAGVFPGRCLPINAREITKQELQMVHTSEHVDAVDTTSQLLYSYFTSDTYANEYSARAARLAAGLCADLATDIFTGRVKNGFALVRPPGHHAGVRHAMGFCLHNNAAVAALVAQAAGAKKVLIVDWDVHHGNGTQEIFEQNKSVLYISLHRHEGGNFYPGTGAADEVGSNGGEGYCVNVPWSCGGVGDKDYIFAFQHVVLPIASAFSPDFVIISAGFDAARGDPLGCCDVTPAGYSRMTQMLGDLCGGKMLVILEGGYNLRSISASATAVIKVLLGENPENELPIATTPSVAGLQTVLDVLNIQLEFWPSLAISYSKLLSELEARLIENKKNQMKRKVVRVPTWWKWGRKKLLYNFLSARMISRSK

Source: article doi:10.1101/2020.08.07.241737 (bioRxiv, 2020)
